This passage reports Authentic Virus Neutralization IC50 results from patent US20250289871A1.

Assay [1] addresses SARS-CoV-2 D614G spike protein (authentic virus) (SARS-CoV-2) (UniProt P0DTC2). In words: cell-based or functional assay.
For assay [2], the target named is SARS-CoV-2 Delta + T51I + T95I spike protein (authentic virus) (SARS-CoV-2) (UniProt P0DTC2). Description: cell-based or functional assay.

In the case of cilgavimab (AZD1061) (antibody), the Authentic Virus Neutralization IC50 worked out at 0.066 µg/mL in assay [1] and 0.014 µg/mL in assay [2].
